Where a chain is given by its changes, count along the chain named.
T1: hASIC3a-eYFP (human, UniProt Q9UHC3 1-531)
T1 construct: whole, on cells; Transiently expressed on CHO-K1 cells; not shown: eYFP fusion
T1 sequence (looked up): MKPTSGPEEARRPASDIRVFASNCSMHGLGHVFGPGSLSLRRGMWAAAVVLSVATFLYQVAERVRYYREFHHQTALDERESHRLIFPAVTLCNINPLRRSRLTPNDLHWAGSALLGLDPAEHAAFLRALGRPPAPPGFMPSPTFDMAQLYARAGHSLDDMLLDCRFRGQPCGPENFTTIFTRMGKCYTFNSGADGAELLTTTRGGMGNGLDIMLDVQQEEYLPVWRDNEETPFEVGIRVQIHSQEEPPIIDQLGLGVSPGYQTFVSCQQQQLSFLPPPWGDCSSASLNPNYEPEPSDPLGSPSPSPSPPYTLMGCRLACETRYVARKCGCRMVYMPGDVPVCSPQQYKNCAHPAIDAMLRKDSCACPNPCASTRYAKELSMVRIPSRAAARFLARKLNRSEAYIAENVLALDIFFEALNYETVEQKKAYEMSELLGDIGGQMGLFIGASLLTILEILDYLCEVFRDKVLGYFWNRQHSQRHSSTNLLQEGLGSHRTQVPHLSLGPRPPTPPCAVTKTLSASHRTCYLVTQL

T2: hASIC1a-eYFP (human, UniProt P78348 1-528)
T2 construct: whole, on cells; On CHO-K1 cells, stably (6H7) or transiently transfected; also called full-length hASIC1a (1-528 amino acids) fused with eYFP; CHO-K1/hASIC1a cells; not shown: C-terminal eYFP fusion
T2 sequence (looked up): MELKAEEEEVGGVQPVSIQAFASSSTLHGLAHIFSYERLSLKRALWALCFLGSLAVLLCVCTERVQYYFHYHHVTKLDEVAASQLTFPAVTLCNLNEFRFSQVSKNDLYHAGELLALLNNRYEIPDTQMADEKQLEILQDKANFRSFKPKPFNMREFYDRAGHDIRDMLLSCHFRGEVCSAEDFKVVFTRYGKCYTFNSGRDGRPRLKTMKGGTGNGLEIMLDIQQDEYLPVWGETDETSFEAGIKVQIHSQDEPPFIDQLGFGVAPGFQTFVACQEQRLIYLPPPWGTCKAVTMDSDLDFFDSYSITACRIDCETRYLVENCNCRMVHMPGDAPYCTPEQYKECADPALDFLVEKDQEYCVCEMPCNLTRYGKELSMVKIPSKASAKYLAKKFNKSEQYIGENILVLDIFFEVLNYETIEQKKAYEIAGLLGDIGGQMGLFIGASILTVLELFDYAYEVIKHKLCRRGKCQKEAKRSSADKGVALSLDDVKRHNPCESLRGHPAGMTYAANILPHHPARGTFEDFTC

T3: hASIC1a-mCherry (human, UniProt P78348 1-528)
T3 sequence (looked up): T2 sequence (looked up)

T4: hASIC1a Y318A mutation (hASIC1a-eYFP) (human, UniProt P78348 1-528)
T4 construct: whole, on cells; Transiently expressed on CHO-K1 cells; not shown: eYFP fusion
T4 sequence (looked up): T2 sequence (looked up) with Y318A

T5: hASIC2a-eYFP (human, UniProt Q16515 1-512)
T5 construct: whole, on cells; Transiently expressed on CHO-K1 cells; not shown: eYFP fusion
T5 sequence (looked up): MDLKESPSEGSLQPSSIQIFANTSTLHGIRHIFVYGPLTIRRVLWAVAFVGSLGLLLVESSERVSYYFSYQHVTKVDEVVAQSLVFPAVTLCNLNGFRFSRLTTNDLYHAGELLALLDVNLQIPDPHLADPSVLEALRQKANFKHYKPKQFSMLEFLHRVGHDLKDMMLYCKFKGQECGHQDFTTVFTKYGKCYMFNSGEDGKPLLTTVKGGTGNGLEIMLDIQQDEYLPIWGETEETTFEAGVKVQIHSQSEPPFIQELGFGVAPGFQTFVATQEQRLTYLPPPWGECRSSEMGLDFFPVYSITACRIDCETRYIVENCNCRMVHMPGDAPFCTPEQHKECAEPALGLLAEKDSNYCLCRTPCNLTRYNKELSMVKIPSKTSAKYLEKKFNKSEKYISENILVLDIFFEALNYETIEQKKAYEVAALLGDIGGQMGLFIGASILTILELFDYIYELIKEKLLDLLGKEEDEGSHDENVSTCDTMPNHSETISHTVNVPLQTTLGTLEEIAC

B1: ASC06-IgG1 (antibody, V domains shown)
VH: QVQLQQSGGGLVQPGGSLRLSCAASGFTFSSYAMSWVRQAPGKGLEWVSAISGSGGSTYYADSVKGRFTISRDNSKNTLYLQMNSLRAEDTAVYYCAKDSFYGYSKGDWGQGTLVTVSS
VL: QSALTQPASVSGSPGQSITISCTGTSSDVGAYNYVSWYQQQPGKAPKLMIYGVSNRPSGVSNRFSGSKSGNAASLTISGLQAEDEADYYCSSYTSSSTYVFGTGTKLTVLG
notes: also called full length (ASC06-IgG1); ASC06-lgG1

What was measured:
[1] = molecular target: T6, hASIC1a (hASIC1a-mCherry, 4C12 cells) (Homo sapiens, UniProt P78348); test: FLIPR assay of acid-induced ASIC1a-mediated calcium influx in 4C12 cells; format: cell-based; settings: at 30 µM
T6 construct: expressed in transfected cells
Description: Calcium Influx. The FLIPR Calcium 5 Assay kit was used to determine the acid-induced calcium influx in the hASIC1a-mCherry-expressing stable CHO-K1 cells (4C12). Cells were seeded in a clear bottom 96-well plate at a density of 10,000 per well 24 h before assay. Assay buffer and dye loading buffer (1.26 mM CaCl2, 0.5 mM MgCl2, 0.4 mM MgSO4, 5.33 mM KCl, 0.44 mM KH2PO4, 4.17 mM NaHCO3, 138 mM NaCl, 0.338 mM Na2HPO4, 20 mM HEPES, pH 7.4) were prepared according to the manufacturer's instruction. Probenecid was added to the dye loading buffer to a final concentration of 2.5 mM immediately before use. Fifty microliters of the assay buffer containing ASC06-IgG1 was incubated with the 4C12 cells for 30 min at 37° C., and an equal volume of the dye loading buffer was added. […] Cells were incubated with the dye loading buffer for 1 h before reading on an FDSS/μCELL plate reader (Hamamatsu). […] The progression curve of the calcium signal produced in each well was recorded continuously for 10 s before the addition of the activation buffer (preread) and 170 s after the addition on an FDSS/μCELL (excitation wavelength: 480 nm; emission wavelength: 540 nm) FLIPR reader. […]
The calcium influx of the ASIC1a was measured on a FLIPR instrument using the stable cell line 4C12 expressing hASIC1a-mCherry fusion. […]

hASIC3a-eYFP = molecular target: T1, hASIC3a-eYFP; test: flow cytometry, CHO-K1 cells transiently transfected with hASIC3a-eYFP, Alexa555-conjugated ASC06-IgG1
Description: 10,000 cells were sorted.
(§1) The CHO-K1 cells were transiently transfected with these plasmids.

hASIC1a-eYFP [2] = molecular target: T2, hASIC1a-eYFP; test: flow cytometry on 6H7 cells (stable hASIC1a-eYFP), Alexa555 secondary antibody
Description: In the flow cytometry-binding experiments, ASIC1a-eYFP-expressing stable cells (6H7) were collected and resuspended in ice cold FACS buffer (PBS, 0.05% BSA, 2 mM EDTA). […] After incubating at 4° C. for 15 min, the cells were washed twice and resuspended in the FACS buffer. Cells were sorted and analyzed on a flow cytometer (CytoFLEX S; Beckman Culter) to determine relative binding level by the antibodies to the stable cell lines overexpressing hASIC1a. Mean fluorescent intensities of Alexa555 in eYFP-positive cells were recorded and analyzed to calculate the apparent binding affinity of antibody.

[3] = molecular target: truncated hASIC1a (amino acids 13-464) (human) (UniProt P78348); test: SPR (Biacore T200), single cycle kinetics, Flag-tagged ΔhASIC1a captured on anti-Flag chip, antibody as analyte
hASIC2a/2b-eYFP (human) = hASIC2a/2b-eYFP (human) (UniProt Q16515); test: flow cytometry, CHO-K1 cells transiently transfected with hASIC2a/2b-eYFP, Alexa555-conjugated ASC06-IgG1; eYFP-positive cells without antibody signal: Q1-LR(27.09%)
hASIC1a-eYFP [4] = molecular target: T2, hASIC1a-eYFP; test: cell-based or functional assay
hASIC1a-mCherry = molecular target: T3, hASIC1a-mCherry; test: cell-based or functional assay
[5] = molecular target: T4, hASIC1a Y318A mutation (hASIC1a-eYFP); test: flow cytometry, CHO-K1 cells transiently transfected with hASIC1a Y318A-eYFP, ASC06-IgG1 and labelled second antibody
Description: Plasmid encoding single amino acid mutation of hASIC1a-eYFP was constructed and transient transfected into CHO-K1 cells.

hASIC2a-eYFP = molecular target: T5, hASIC2a-eYFP; test: flow cytometry, CHO-K1 cells transiently transfected with hASIC2a-eYFP, Alexa555-conjugated ASC06-IgG1
Description: 10,000 cells were sorted.
as §1

hASIC1b-eYFP (human) = hASIC1b-eYFP (human) (UniProt P78348); test: flow cytometry, CHO-K1 cells transiently transfected with hASIC1b-eYFP, Alexa555-conjugated ASC06-IgG1; eYFP-positive cells without antibody signal: Q1-LR(49.22%)

| Molecule | inhibition of calcium influx [1] | binding result (hASIC3a-eYFP) | EC50 (hASIC1a-eYFP [2]) | Kd [3] | percent of cells in quadrant Q1-UR (Alexa555 and eYFP double-positive) (hASIC2a/2b-eYFP (human)) | apparent IC50 of inhibition of acid (pH 6.0)-induced currents, whole-cell patch clamp on the hASIC1a stable cell line (hASIC1a-eYFP [4]) | IC50 of inhibition of acid-induced calcium influx, FLIPR assay on 4C12 cells (hASIC1a-mCherry) | binding result [5] | binding result (hASIC2a-eYFP) | percent of cells in quadrant Q1-UR (Alexa555 and eYFP double-positive) (hASIC1b-eYFP (human)) |
| --- | --- | --- | --- | --- | --- | --- | --- | --- | --- | --- |
| N=C(N)NC(=O)c1nc(Cl)c(N)nc1N [amiloride] | 21% |  |  |  |  |  |  |  |  |  |
| B1 |  | no binding | 2.06 nM | 7.9 nM | 0.11% | 85 nM | 2.9 nM | no binding | no binding | 0.15% |

From patent US12692310B2, “ASIC1 channel antagonist antibody” (ShanghaiTech University, priority 2019, dated 2026)
